Laboratory results as given in patent US20230279079A1 (published 2023).

Target: RBD-VLP (SARS-CoV-2, UniProt P0DTC2 340-538)

B1: FI-3A (antibody, V domains shown)
VH: EVQLLESGGGLIQPGGSLRLSCAASGFTVSSNYMSWVRQAPGKGLEWVSVIYSGGSTYYADSVKGRFTISRDNSKNTLYLQMNSLRAEDTAVYYCARDHVRPGMNIWGQGTMVTVSS
VL: not shown
IC50: 3 nM
